{"source": "patent US20190060366A1", "about": "“HIGHLY ENGRAFTABLE HEMATOPOIETIC STEM CELLS” (President and Fellows of Harvard College, priority 2016, published 2019)", "molecules": {"B1": {"name": "G-CSF: hematopoietic growth factor used clinically to mobilize HSC and HPC; comparator regimen (protein, UniProt P09919 31-207, looked up)", "Granulocyte …": "TPLGPASSLPQSFLLKCLEQVRKIQGDGAALQEKLVSECATYKLCHPEELVLLGHSLGIPWAPLSSCPSQALQLAGCLSQLHSGLFLYQGLLQALEGISPELGPTLDTLQLDVADFATTIWQQMEELGMAPALQPTQGAMPAFASAFQRRAGGVLVASHLQSFLEVSYRVLRHLAQP"}}, "key": {"CD34+ cells": {"test_system": "CD34+ cells", "conditions": "cited from earlier work"}, "[1]": {"test_system": "peripheral blood mononuclear cells (PBMCs)", "assay": "Limiting dilution competitive transplants and secondary transplants of mobilized grafts", "format": "in vivo", "conditions": "secondarily transplanted mice; n=16 mice/group, P<0.01"}}}
{"molecule": "B1", "values": [{"measurement": "patients that fail to mobilize an optimal CD34+ cell dose for autologous transplantation", "setting": "CD34+ cells; autologous transplantation patients", "value": "Up to 60%"}, {"measurement": "poor mobilization in response to G-CSF, share of normal, healthy donors", "setting": "CD34+ cells; normal, healthy donors", "value": 15, "unit": "%"}, {"measurement": "competitiveness of graft as measured by contribution to chimerism", "setting": "[1]", "value": "remained static"}]}
